Patent publication US20260116991A1 (HAINAN SIMCERE ZAIMING PHARMACEUTICAL, published 2026)

Legend:
monkey GPC3-His protein [1] = biological target: T1, monkey GPC3-His protein (monkey); assay: ELISA, monkey GPC3-His coated; antibody 34.72 nM
T1 construct: Bought protein; also called monkey GPC3 protein
Procedure: (§1) The specific method is described as follows: The antigen protein was diluted with PBS to a final concentration of 1 μg/mL, and the diluent was added to a 96-well ELISA plate at 50 μL/well. The plate was sealed with a plastic film and incubated at 4° C. overnight, washed twice with PBS the next day, and a blocking solution [PBS+2% (w/w) BSA] was added for blocking at room temperature for 2 h. […] After incubation at 37° C. for 2 h, the plate was washed 3 times with PBS. A horseradish peroxidase (HRP)-labeled secondary antibody (purchased from Merck, Cat. No. AP113P) was added for incubation at 37° C. for 1 h, and the plate was washed 5 times with PBS. A TMB substrate was added at 50 μL/well for incubation at room temperature for 10 min, then a stop solution (1.0M HCl) was added at 50 μL/well.

monkey GPC3-His protein [2] = biological target: T1, monkey GPC3-His protein; assay: ELISA, monkey GPC3-His coated; antibody 1.39 nM
Procedure: as §1

monkey GPC3-His protein [3] = biological target: T1, monkey GPC3-His protein; assay: ELISA, monkey GPC3-His coated; antibody 0.28 nM
Procedure: as §1

monkey GPC3-His protein [4] = biological target: T1, monkey GPC3-His protein; assay: ELISA, monkey GPC3-His coated; antibody 0.011 nM
Procedure: as §1

monkey GPC3-His protein [5] = biological target: T1, monkey GPC3-His protein; assay: ELISA, monkey GPC3-His coated; antibody 0.056 nM
Procedure: as §1

GPC3 on HepG2 cells = biological target: T2, GPC3 on HepG2 cells (human, UniProt P51654 25-554); assay: FACS on HepG2 cells
T2 construct: whole, on cells; also called glypican-3
Procedure: The desired cells were expanded to a logarithmic growth phase in a T-75 cell culture flask, the medium was removed by pipetting, and the cells were washed twice with a PBS buffer, and digested with trypsin. Then a complete medium was added to stop the digestion, and the cells were blown into a single cell suspension. After counting, the cells were centrifuged, and the cell pellet was resuspended with an FACS buffer (PBS+2% fetal bovine serum) to 2×10⁶ cells/mL. The cell resuspension solution was added to a 96-well FACS reaction plate at 50 μl/well, and a humanized antibody sample to be tested was added at 50 μl/well for incubation at 4° C. for 1 h. […] After the plate was centrifuged and washed 3 times with a PBS buffer, 100 μl of the resulting solution was assayed and analyzed by FACS (FACS Canto™, purchased from BD Biosciences). Data analysis was performed by software (FlowJo) to obtain the mean fluorescence intensity (MFI) of the cells. Then, analysis was performed by software (GraphPad Prism8), data were fitted, and EC₅₀ values were calculated.

monkey GPC3-His protein [6] = biological target: T1, monkey GPC3-His protein; assay: ELISA, monkey GPC3-His coated; antibody 0.002 nM
Procedure: as §1

monkey GPC3-His protein [7] = biological target: T1, monkey GPC3-His protein; assay: ELISA, monkey GPC3-His coated; antibody 0.0004 nM
Procedure: as §1

monkey GPC3-His protein [8] = biological target: T1, monkey GPC3-His protein; assay: ELISA, monkey GPC3-His coated; antibody 6.94 nM
Procedure: as §1

Binder	OD450 nm (monkey GPC3-His protein [1])	OD450 nm (monkey GPC3-His protein [2])	OD450 nm (monkey GPC3-His protein [3])	OD450 nm (monkey GPC3-His protein [4])	OD450 nm (monkey GPC3-His protein [5])	EC50 (GPC3 on HepG2 cells)	Max MFI (GPC3 on HepG2 cells)	OD450 nm (monkey GPC3-His protein [6])	OD450 nm (monkey GPC3-His protein [7])	OD450 nm (monkey GPC3-His protein [8])
hAb007LH1L1c (antibody, human IgG1, V domains shown, Humanized F3.81.19, H1+L1c) VH: EVQLVQSGAEVKKPGSSVKVSCKASGYTFSDYEMHWVRQAPGQGLEWMGTIDPETGNTAYNQKFKGRVTITADKSTSTAYMELSSLRSEDTAVYYCTRPYSLTYWGQGTLVTVSS VL: DIVMTQTPLSLPVTPGEPASISCRSSQSFVHSNADTYLQWYLQKPGQSPQLLIYKVSNRFSGVPDRFSGSGSGTDFTLKISRVEAEDVGVYYCFQGSHVPYTFGQGTKLEIK	1.25	1.3	0.744	0.103	0.268	3.67 nM	3770	0.069	0.05	1.26
hAb007LH1L1d (antibody, human IgG1, V domains shown, Humanized F3.81.19, H1+L1d) VH: EVQLVQSGAEVKKPGSSVKVSCKASGYTFSDYEMHWVRQAPGQGLEWMGTIDPETGNTAYNQKFKGRVTITADKSTSTAYMELSSLRSEDTAVYYCTRPYSLTYWGQGTLVTVSS VL: DIVMTQTPLSLPVTPGEPASISCRSSQSFVHSNSDTYLQWYLQKPGQSPQLLIYKVSNRFSGVPDRFSGSGSGTDFTLKISRVEAEDVGVYYCFQGSHVPYTFGQGTKLEIK	1.25	1.2	0.752	0.09	0.235	4.39 nM	3830	0.078	0.053	1.3
hAb007LH1L1e (antibody, human IgG1, V domains shown, Humanized F3.81.19, H1+L1e) VH: EVQLVQSGAEVKKPGSSVKVSCKASGYTFSDYEMHWVRQAPGQGLEWMGTIDPETGNTAYNQKFKGRVTITADKSTSTAYMELSSLRSEDTAVYYCTRPYSLTYWGQGTLVTVSS VL: DIVMTQTPLSLPVTPGEPASISCRSSQSFVHSNVDTYLQWYLQKPGQSPQLLIYKVSNRFSGVPDRFSGSGSGTDFTLKISRVEAEDVGVYYCFQGSHVPYTFGQGTKLEIK	1.14	0.848	0.399	0.14	0.148	10.1 nM	2910	0.148	0.043	1.17
